The results in this text go back to patent US20250382602.

Residue numbers refer to the chain shown, from its start.

The target in series [1] is T1, Dda 1993 K177V K177V (Enterobacteria phage T4) (UniProt P32270).
T1 sequence: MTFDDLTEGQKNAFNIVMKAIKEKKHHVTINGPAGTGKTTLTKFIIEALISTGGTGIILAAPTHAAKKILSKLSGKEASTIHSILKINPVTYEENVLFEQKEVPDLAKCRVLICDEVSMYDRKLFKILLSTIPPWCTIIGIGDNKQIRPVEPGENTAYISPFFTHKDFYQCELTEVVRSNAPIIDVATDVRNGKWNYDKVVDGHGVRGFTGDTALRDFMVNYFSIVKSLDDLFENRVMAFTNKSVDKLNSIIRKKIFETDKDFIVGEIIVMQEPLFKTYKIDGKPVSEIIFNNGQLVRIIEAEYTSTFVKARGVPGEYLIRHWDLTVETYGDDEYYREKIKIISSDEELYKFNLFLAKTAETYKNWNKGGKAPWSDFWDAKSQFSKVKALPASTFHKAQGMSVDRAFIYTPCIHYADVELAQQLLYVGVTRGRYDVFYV
Conditions: nanopore translocation; background mutations not given.

In series [2] the target is T2, Dda 1993 K177Y K177Y (Enterobacteria phage T4) (UniProt P32270).
T2 sequence: T1 sequence with V177Y
To be noted: nanopore translocation; background mutations not given.

Series [3] concerns the target T3, Dda 1993 K177D K177D (Enterobacteria phage T4) (UniProt P32270).
T3 sequence: T1 sequence with V177D
Conditions: nanopore translocation; control is an unspecified Dda variant, background mutations not given.

The target of series [4] is T4, Dda 1993 K177M K177M (Enterobacteria phage T4) (UniProt P32270).
T4 sequence: T1 sequence with V177M
To be noted: nanopore translocation; background mutations not given.

The target of series [5] is T5, Dda 1993 K177W K177W (Enterobacteria phage T4) (UniProt P32270).
T5 sequence: T1 sequence with V177W
To be noted: nanopore translocation; background mutations not given.

For series [6], the target named is T6, Dda 1993 K177R K177R (Enterobacteria phage T4) (UniProt P32270).
T6 sequence: T1 sequence with V177R
Conditions: nanopore translocation; background mutations not given.

With “barcoded 3.6 kb DNA analyte ligated to sequencing Y adaptor”, the activity (bps speed delta vs control) in series [1] is -16; in series [2] it was -43.9; in series [3], 3.07; in series [4] it was 48.3; in series [5], -23.4; in series [6] it was 21.7.
